# The RNAGym collection of RNA variant scans (doi:10.1073/pnas.2313332121)
# Fewer inactive variants are shown than the library holds.
# B1: TPR 5TU (parent)
# chain: GGAUCUUCUCGAUCUAACAAAAAAGACAAAUCUGCCACAAAGCUUGAGAGCAUCUUCGGAUGCAGAGGCGGCAGCCUUCGGUGGCGCGAUAGCGCCAACGUUCUCAACUAUGACACGCAAAACGCGUGCUCCGUUGAAUGGAGUUUAUCAUG
# Variants of: B1
# Assay: polymerase ribozyme fitness, log enrichment relative to wild type (log ratio); higher = more active; in vitro selection for triplet polymerase activity
# Procedure, shortened: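 The heterodimeric triplet polymerase ribozyme's subunits were each mutagenized into PCR-built libraries and transcribed. Every library was selected once, in triplicate, by annealing with a biotinylated primer, the partner subunit and triplets, incubating frozen at −7 °C, gel-excising extended constructs, capturing on streptavidin beads and running RT-PCR. Input and output libraries were Illumina-sequenced, with genotypes kept only at ≥10 input reads and ≥1 read per output. Fitness, from inverse-variance-weighted replicate averages, is the base-2 logarithm of genotype enrichment over wild-type enrichment.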
row,Variant,polymerase ribozyme fitness (log ratio)
1,A40C G100U U102G U135A,≤ -4.2
2,A40U C57U A89C C99G A119G,-1.22
3,A40C C85U G133C A142G,-3.92
4,A40G G58C C79G C87U G136U,≤ -4.2
5,A40U A89C C114U,-2.95
6,A40C C85A G92U A119C A147C,≤ -4.2
7,A40C U55A U104C,-0.475
8,A40C A64G G83U G133C A138C,≤ -4.2
9,A39U A91C G141C U148G,≤ -4.2
10,A39U C54U U61A C93U A106U,≤ -4.2
11,A40C U56A C57U G140C,-3.75
12,A40U C57G C105A,-0.98
13,A40U G50C A52G C85A U90C A97U,≤ -4.2
14,A40U G42U C69U A89G A91U A106C C149U,≤ -4.2
15,A40U C75G C85G U135G G140U,≤ -4.2
16,A39U C79G G84U,≤ -4.2
17,A39U U44C U53A G62U G86A,≤ -4.2
18,A40G G59A C93A,-4.07
19,A39U A107G G140C,≤ -4.2
20,A40C C131G,-3.13
21,A40C C75G U82G C93G A138G G140C,≤ -4.2

row,Variant,polymerase ribozyme fitness (log ratio)
1,A40C G50C C79U G81C C118U,≤ -4.2
2,A40U C54A A110G A120U,-4.07
3,A39U A41C G80C G84U A142C C149A,≤ -4.2
4,A40C G86A G141C A147C,≤ -4.2
5,A40G G70C C85A,≤ -4.2
6,A40C C54U G141U,0.7
7,A40C U44G U53A C87G A107U A121U G124C U130A G143A,≤ -4.2
8,A39U C118U,-2.03
9,A40G G42U G74C,≤ -4.2
10,A40G U82G,-1.38
11,A39G U134G,-3.86
12,A40U C85A U144A,-0.577
13,A40G A41G G67C A120C,≤ -4.2
14,A40G U56G C85A A115U U134C,-4.09
15,A40C U44A G59A C93A U109A,≤ -4.2
16,A40C C63U U82G G83C C96G A120C A121U U144A,-0.868
17,A40G C125G,-2.5
18,A39G U56G G58C C79U U102A U127G,≤ -4.2
19,A40C U144A,-0.312
20,A39U A52G G74U U90A A122G C125G C129U,≤ -4.2
21,A40G G50U U56A G83C,-4.02

row,Variant,polymerase ribozyme fitness (log ratio)
1,A40C C85U C95U A98G G126U,-1.37
2,A40U C54U G71U C95A U146C G152A,≤ -4.2
3,A39U U53A A91G A97G U111G,-4.05
4,A40G C105U A115U A138G,≤ -4.2
5,A39U C51G U55G U61G C85U C99U,≤ -4.2
6,A40C G94U C95G,-3.87
7,A39U G86U C114U A120U G140A,≤ -4.2
8,A40U G50U G80A G126A C132G,≤ -4.2
9,A40G A73G G86A,-4.16
10,A40U A41C A49G C96A,-1.32
11,A40G U45A A47C C99U A115C G124C,≤ -4.2
12,A39U A52U C76G G83A,≤ -4.2
13,A40G C69G G70U G83A A150U,≤ -4.2
14,A40G C85A G133C G136A,-3.86
15,A40G G48U G58U C76A,≤ -4.2
16,A39U G81A C99U U104C G117A,-3.48
17,A40U C63G,0.0879
18,A40G U45A U56A A60G G71C C118G,≤ -4.2
19,A40C C51U C57A G94U C114G A150G,≤ -4.2
20,A40U A41C C96U,-0.566
21,A40G A60C U61A G81C U90G G94A C123A U139A,≤ -4.2

row,Variant,polymerase ribozyme fitness (log ratio)
1,A40C U55A G59A A113U C123A,-0.982
2,A39U G50U G83A C96G C103U U135G,≤ -4.2
3,A40C G68U G86A C103G,≤ -4.2
4,A39U G71C G84A C103U,≤ -4.2
5,A40G A41C C43A G83C C87G C96A,≤ -4.2
6,A40U C57G,0.32
7,A39U A49C A137G,≤ -4.2
8,A40C G50A,-2.43
9,A40G G124U,-2.64
10,A40G A52C A66U C75G C79G A120C,≤ -4.2
11,A40C U146G,-0.247
12,A40U A107U C132G,≤ -4.2
13,A39U U55G G88A U104A U135A U144C C149A,≤ -4.2
14,A39U C69U C75U G84U U127G,≤ -4.2
15,A39U C72A G83A A137U,≤ -4.2
16,A40C A41U C99U C125A,-2.04
17,A40G G67U C85A A98U U144C U145A,≤ -4.2
18,A40C C54U U56A G126U,-0.0276
19,A40G C57A C72U C87A,≤ -4.2
20,A40G G58C C87A C103G A110U U135A,≤ -4.2
